Results reported in patent publication US20090318342A1, “Compounds” (IMPERIAL INNOVATIONS LIMITED, priority 2005, published 2009).
pKi: −log10 of the molar value.

Columns and labels:
[1] = target: full-length collagenase 1 (MMP-1) (Homo sapiens (Human)) (UniProt P03956); assay: MMP-1 inhibition under the conditions used for TACE activity measurements
Target sequence in this assay (P03956 100-469 limits assumed): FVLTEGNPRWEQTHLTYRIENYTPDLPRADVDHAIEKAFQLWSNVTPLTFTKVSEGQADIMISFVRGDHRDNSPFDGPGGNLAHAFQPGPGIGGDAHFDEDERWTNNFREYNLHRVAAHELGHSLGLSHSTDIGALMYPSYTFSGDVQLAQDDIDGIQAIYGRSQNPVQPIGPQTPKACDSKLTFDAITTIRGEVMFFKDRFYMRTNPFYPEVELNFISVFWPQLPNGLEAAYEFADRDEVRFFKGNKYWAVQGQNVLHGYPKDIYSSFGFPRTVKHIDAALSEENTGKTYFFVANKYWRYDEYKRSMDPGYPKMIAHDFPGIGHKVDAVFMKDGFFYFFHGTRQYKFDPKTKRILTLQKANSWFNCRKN

[2] = target: catalytic domain of stromelysin 1 (MMP-3(ΔC)) (Homo sapiens (Human)) (UniProt P08254); assay: enzyme inhibition kinetics, Ki(app), as in Example 1
[3] = target: gelatinase A (MMP-2) (Homo sapiens (Human)) (UniProt P08253); assay: as above
[4] = target: full-length collagenase 1 (MMP-1) (Homo sapiens (Human)) (UniProt P03956); assay: as above
[5] = target: full-length collagenase 1 (MMP-1) (Homo sapiens (Human)) (UniProt P03956); assay: enzyme inhibition kinetics, Ki(app), 5 nM MMP-1
[6] = target: soluble form of TACE in which the transmembrane and C-terminal cytoplasmic domains are deleted (TACE R651) (human) (UniProt P78536); assay: TACE inhibition kinetics, Ki(app), pH 9.0, fit with equation 3 (cooperative)
[7] = target: catalytic domain of stromelysin 1 (MMP-3(ΔC)) (Homo sapiens (Human)) (UniProt P08254); assay: enzyme inhibition kinetics, Ki(app), 1 nM MMP-3(ΔC)
[8] = target: T1, recombinant human ADAMTS-4 lacking the C-terminal spacer domain (human) (UniProt O75173); assay: inhibition of aggrecan cleavage by 0.5 nM ADAMTS-4, anti-GELE Western blot, densitometry
T1 sequence: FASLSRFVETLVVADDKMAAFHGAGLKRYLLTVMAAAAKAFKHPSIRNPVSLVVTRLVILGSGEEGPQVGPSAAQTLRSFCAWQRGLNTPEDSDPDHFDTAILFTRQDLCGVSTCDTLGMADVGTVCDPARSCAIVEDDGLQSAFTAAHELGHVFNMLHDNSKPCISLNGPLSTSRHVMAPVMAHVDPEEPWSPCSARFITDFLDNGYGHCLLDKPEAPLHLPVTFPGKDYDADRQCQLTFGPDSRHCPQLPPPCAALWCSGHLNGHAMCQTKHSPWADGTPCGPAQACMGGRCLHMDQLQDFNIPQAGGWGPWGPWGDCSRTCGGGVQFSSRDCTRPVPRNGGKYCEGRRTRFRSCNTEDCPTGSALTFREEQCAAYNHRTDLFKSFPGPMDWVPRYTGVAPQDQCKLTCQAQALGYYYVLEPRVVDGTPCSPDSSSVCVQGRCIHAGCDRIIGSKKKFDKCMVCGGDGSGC

[9] = target: T2, ADAMTS-4 (as used in Example 4; form not stated) (Homo sapiens (Human)) (UniProt O75173); assay: GST-IGD-FLAG substrate assay, Ki(app)
T2 sequence: T1 sequence

[10] = target: ADAMTS-5 (Homo sapiens (Human)) (UniProt Q9UNA0); assay: GST-IGD-FLAG substrate assay, Ki(app)
[11] = target: catalytic domain of membrane-type 1 MMP (MMP-14(CD)) (Homo sapiens (Human)) (UniProt P50281); assay: enzyme inhibition kinetics, Ki(app), 5 nM MMP-14(CD)
[12] = target: gelatinase A (MMP-2) (Homo sapiens (Human)) (UniProt P08253); assay: enzyme inhibition kinetics, Ki(app), 1 nM MMP-2
[13] = target: soluble form of TACE in which the transmembrane and C-terminal cytoplasmic domains are deleted (TACE R651) (human) (UniProt P78536); assay: TACE inhibition kinetics at pH 7.5

Sequence of (-1A)N-TIMP-3 (chain): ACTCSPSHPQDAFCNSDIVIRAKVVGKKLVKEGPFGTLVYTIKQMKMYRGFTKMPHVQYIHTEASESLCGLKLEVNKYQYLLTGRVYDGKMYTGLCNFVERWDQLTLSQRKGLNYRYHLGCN

Row | pKi [1] | pKi [2] | pKi [3] | pKi [4] | pKi [5] | pKi [6] | pKi [7] | pKi [8] | pKi [9] | pKi [10] | pKi [11] | pKi [12] | pKi [13] | Substance
1 | 6.39 | < 6.00 | < 6.00 | < 6.30 | 5.89 | 7.47 | 5.48 | 7.74 | 7.60 | 8.72 | 6.03 | 6.21 | – | (-1A)N-TIMP-3
2 | – | < 6.00 | < 6.00 | < 6.30 | 6.26 | 7.45 | < 5.00 | 7.82 | 7.70 | 8.82 | 5.64 | 5.38 | 7.34 | N-TIMP-3(T2G)
